Reference: PMC12102759 (2025)

B1: ATXN2 peptide 913-928 (Ataxin-2), 16-mer library wild type / PABPC1 PABC (PABPC1 PABC domain, residues 544-623) (parent complex)
chain 1: TLNPNAKEFNPRSFSQ
chain 2: PLTASMLASAPPQEQKQMLGERLFPLIQAMHPTLAGKITGMLLEIDNSELLHMLESPESLRSKVDEAVAVLQAHQAKEAA

Variants of: B1
Assay: proteomic peptide phage display deep mutational scan (ProP-PD DMS): M13 P8 16-mer library selected against immobilised GST-tagged bait for four days (rounds), NGS of the eluted pools per day and pseudo-replica; bait immobilised on MaxiSorp plates (10 µg), library pre-cleared on GST, 2 h binding at 4 °C, five washes; one round per day, days 1-4; value from days 2 and 3

| Variant | screen value |
| --- | --- |
| chain 1 N5Q | 0.00052 average fractional NGS count over selection days 2 and 3 (reads of this peptide / all reads for the bait, averaged over … |
| chain 1 T1K | 0.00118 average fractional NGS count over selection days 2 and 3 (reads of this peptide / all reads for the bait, averaged over … |
| chain 1 R12K | 0.000537 average fractional NGS count over selection days 2 and 3 (reads of this peptide / all reads for the bait, averaged over … |
| chain 1 K7P | 0.000615 average fractional NGS count over selection days 2 and 3 (reads of this peptide / all reads for the bait, averaged over … |
| chain 1 P11F | 0.00198 average fractional NGS count over selection days 2 and 3 (reads of this peptide / all reads for the bait, averaged over … |
| chain 1 P11N | 0.000672 average fractional NGS count over selection days 2 and 3 (reads of this peptide / all reads for the bait, averaged over … |
| chain 1 F14H | 0.00184 average fractional NGS count over selection days 2 and 3 (reads of this peptide / all reads for the bait, averaged over … |
| chain 1 F14L | 0.00171 average fractional NGS count over selection days 2 and 3 (reads of this peptide / all reads for the bait, averaged over … |
| chain 1 S15I | 0.000409 average fractional NGS count over selection days 2 and 3 (reads of this peptide / all reads for the bait, averaged over … |
| chain 1 R12Y | 0.00157 average fractional NGS count over selection days 2 and 3 (reads of this peptide / all reads for the bait, averaged over … |
| chain 1 S13L | 0.0013 average fractional NGS count over selection days 2 and 3 (reads of this peptide / all reads for the bait, averaged over … |
| chain 1 R12M | 0.00123 average fractional NGS count over selection days 2 and 3 (reads of this peptide / all reads for the bait, averaged over … |
| chain 1 P11M | 0.000174 average fractional NGS count over selection days 2 and 3 (reads of this peptide / all reads for the bait, averaged over … |
| chain 1 S13Y | 0.00087 average fractional NGS count over selection days 2 and 3 (reads of this peptide / all reads for the bait, averaged over … |
| chain 1 K7V | 0.000726 average fractional NGS count over selection days 2 and 3 (reads of this peptide / all reads for the bait, averaged over … |
| chain 1 P11Q | 0.000241 average fractional NGS count over selection days 2 and 3 (reads of this peptide / all reads for the bait, averaged over … |
| chain 1 T1V | 0.000977 average fractional NGS count over selection days 2 and 3 (reads of this peptide / all reads for the bait, averaged over … |
| chain 1 T1G | 0.00313 average fractional NGS count over selection days 2 and 3 (reads of this peptide / all reads for the bait, averaged over … |
| chain 1 S13A | 0.00421 average fractional NGS count over selection days 2 and 3 (reads of this peptide / all reads for the bait, averaged over … |
| chain 1 N5L | 0.00771 average fractional NGS count over selection days 2 and 3 (reads of this peptide / all reads for the bait, averaged over … |
| chain 1 N5T | 0.00242 average fractional NGS count over selection days 2 and 3 (reads of this peptide / all reads for the bait, averaged over … |
| chain 1 K7T | 0.000636 average fractional NGS count over selection days 2 and 3 (reads of this peptide / all reads for the bait, averaged over … |
| chain 1 F14A | 0.000336 average fractional NGS count over selection days 2 and 3 (reads of this peptide / all reads for the bait, averaged over … |
| chain 1 K7I | 0.000344 average fractional NGS count over selection days 2 and 3 (reads of this peptide / all reads for the bait, averaged over … |
| chain 1 N5K | 0.00157 average fractional NGS count over selection days 2 and 3 (reads of this peptide / all reads for the bait, averaged over … |

| Variant | screen value |
| --- | --- |
| chain 1 N3S | 0.0019 average fractional NGS count over selection days 2 and 3 (reads of this peptide / all reads for the bait, averaged over … |
| chain 1 N10R | 0.000511 average fractional NGS count over selection days 2 and 3 (reads of this peptide / all reads for the bait, averaged over … |
| chain 1 N5F | 0.000799 average fractional NGS count over selection days 2 and 3 (reads of this peptide / all reads for the bait, averaged over … |
| chain 1 P11W | 0.000361 average fractional NGS count over selection days 2 and 3 (reads of this peptide / all reads for the bait, averaged over … |
| chain 1 K7F | 0.00539 average fractional NGS count over selection days 2 and 3 (reads of this peptide / all reads for the bait, averaged over … |
| chain 1 S15H | 0.000448 average fractional NGS count over selection days 2 and 3 (reads of this peptide / all reads for the bait, averaged over … |
| chain 1 R12N | 0.00143 average fractional NGS count over selection days 2 and 3 (reads of this peptide / all reads for the bait, averaged over … |
| chain 1 A6V | 0.00065 average fractional NGS count over selection days 2 and 3 (reads of this peptide / all reads for the bait, averaged over … |
| chain 1 K7S | 0.00126 average fractional NGS count over selection days 2 and 3 (reads of this peptide / all reads for the bait, averaged over … |
| chain 1 S13W | 0.000472 average fractional NGS count over selection days 2 and 3 (reads of this peptide / all reads for the bait, averaged over … |
| chain 1 T1L | 0.0036 average fractional NGS count over selection days 2 and 3 (reads of this peptide / all reads for the bait, averaged over … |
| chain 1 F14V | 0.00125 average fractional NGS count over selection days 2 and 3 (reads of this peptide / all reads for the bait, averaged over … |
| chain 1 K7D | 0.00119 average fractional NGS count over selection days 2 and 3 (reads of this peptide / all reads for the bait, averaged over … |
| chain 1 E8N | 0.00138 average fractional NGS count over selection days 2 and 3 (reads of this peptide / all reads for the bait, averaged over … |
| chain 1 T1Y | 0.0102 average fractional NGS count over selection days 2 and 3 (reads of this peptide / all reads for the bait, averaged over … |
| chain 1 S15V | 0.000359 average fractional NGS count over selection days 2 and 3 (reads of this peptide / all reads for the bait, averaged over … |
| chain 1 P4T | 0.000273 average fractional NGS count over selection days 2 and 3 (reads of this peptide / all reads for the bait, averaged over … |
| chain 1 N10D | 0.0012 average fractional NGS count over selection days 2 and 3 (reads of this peptide / all reads for the bait, averaged over … |
| chain 1 T1H | 0.000542 average fractional NGS count over selection days 2 and 3 (reads of this peptide / all reads for the bait, averaged over … |
| chain 1 K7A | 0.0221 average fractional NGS count over selection days 2 and 3 (reads of this peptide / all reads for the bait, averaged over … |
| chain 1 S15E | 0.00372 average fractional NGS count over selection days 2 and 3 (reads of this peptide / all reads for the bait, averaged over … |
| chain 1 P11D | 8.69e-05 average fractional NGS count over selection days 2 and 3 (reads of this peptide / all reads for the bait, averaged over … |
| chain 1 T1M | 0.000194 average fractional NGS count over selection days 2 and 3 (reads of this peptide / all reads for the bait, averaged over … |
| chain 1 A6T | 0.000787 average fractional NGS count over selection days 2 and 3 (reads of this peptide / all reads for the bait, averaged over … |
| chain 1 P11G | 0.000676 average fractional NGS count over selection days 2 and 3 (reads of this peptide / all reads for the bait, averaged over … |

| Variant | screen value |
| --- | --- |
| chain 1 N5V | 0.0117 average fractional NGS count over selection days 2 and 3 (reads of this peptide / all reads for the bait, averaged over … |
| chain 1 S15M | 0.00397 average fractional NGS count over selection days 2 and 3 (reads of this peptide / all reads for the bait, averaged over … |
| chain 1 N10H | 0.000309 average fractional NGS count over selection days 2 and 3 (reads of this peptide / all reads for the bait, averaged over … |
| chain 1 N10L | 0.00266 average fractional NGS count over selection days 2 and 3 (reads of this peptide / all reads for the bait, averaged over … |
| chain 1 S15W | 0.00221 average fractional NGS count over selection days 2 and 3 (reads of this peptide / all reads for the bait, averaged over … |
| chain 1 N5M | 0.0888 average fractional NGS count over selection days 2 and 3 (reads of this peptide / all reads for the bait, averaged over … |
| chain 1 R12Q | 0.000478 average fractional NGS count over selection days 2 and 3 (reads of this peptide / all reads for the bait, averaged over … |
| chain 1 K7Q | 0.000831 average fractional NGS count over selection days 2 and 3 (reads of this peptide / all reads for the bait, averaged over … |
| chain 1 L2W | 0.000443 average fractional NGS count over selection days 2 and 3 (reads of this peptide / all reads for the bait, averaged over … |
| chain 1 L2M | 0.000384 average fractional NGS count over selection days 2 and 3 (reads of this peptide / all reads for the bait, averaged over … |
| chain 1 R12L | 0.000524 average fractional NGS count over selection days 2 and 3 (reads of this peptide / all reads for the bait, averaged over … |
| chain 1 S15G | 0.00895 average fractional NGS count over selection days 2 and 3 (reads of this peptide / all reads for the bait, averaged over … |
| chain 1 N5G | 0.00173 average fractional NGS count over selection days 2 and 3 (reads of this peptide / all reads for the bait, averaged over … |
| chain 1 F14N | 0.00127 average fractional NGS count over selection days 2 and 3 (reads of this peptide / all reads for the bait, averaged over … |
| chain 1 K7H | 0.0027 average fractional NGS count over selection days 2 and 3 (reads of this peptide / all reads for the bait, averaged over … |
| chain 1 N10W | 0.000811 average fractional NGS count over selection days 2 and 3 (reads of this peptide / all reads for the bait, averaged over … |
| chain 1 N5I | 0.00126 average fractional NGS count over selection days 2 and 3 (reads of this peptide / all reads for the bait, averaged over … |
| chain 1 S13T | 0.00197 average fractional NGS count over selection days 2 and 3 (reads of this peptide / all reads for the bait, averaged over … |
| chain 1 P11H | 0.00248 average fractional NGS count over selection days 2 and 3 (reads of this peptide / all reads for the bait, averaged over … |
| chain 1 F9W | 0.00363 average fractional NGS count over selection days 2 and 3 (reads of this peptide / all reads for the bait, averaged over … |
| chain 1 S15F | 0.000374 average fractional NGS count over selection days 2 and 3 (reads of this peptide / all reads for the bait, averaged over … |
| chain 1 P11L | 0.000381 average fractional NGS count over selection days 2 and 3 (reads of this peptide / all reads for the bait, averaged over … |
| chain 1 R12E | 0.000493 average fractional NGS count over selection days 2 and 3 (reads of this peptide / all reads for the bait, averaged over … |
| chain 1 L2Y | 0.000336 average fractional NGS count over selection days 2 and 3 (reads of this peptide / all reads for the bait, averaged over … |
| chain 1 S13Q | 0.000347 average fractional NGS count over selection days 2 and 3 (reads of this peptide / all reads for the bait, averaged over … |
